Here are results for 8 molecules from EP2402371A1.

Residue numbers refer to the chain shown, from its start.

To fix the notation:
B1: humanized anti-GPVI Fab VL1/VH1 (Fab, V domains shown)
VH: QVQLQESGPGLVAPSQSLSITCTVSGFSLTGYGVNWVRQPPSRGLEWLGMIWGDGSTDYQSTLKSRLSISKDTSKSQVFLKMNSLTTDDTARYYCARDLPMDYWGQGTSVTVSS
VL: DIQMTQSPSSLSASVGGRVTITCKASQDINKYIAWYQHKPGKGPSLLIHYTSTLQPGVPSRFSGSGSGRDYSFSISNLQPEDIATYYCLQYANLLTFGGGTKLEIKR
B2: humanized anti-GPVI Fab VL3/VH2 (Fab, V domains shown)
VH: B1 VH with T73N
VL: B1 VL with N93L
B3: humanized anti-GPVI Fab VL3/VH4 (Fab, V domains shown)
VH: B1 VH with G31Y, T73N
VL: B1 VL with N93L
B4: humanized anti-GPVI Fab VL1/VH4 (Fab, V domains shown)
VH: B1 VH with G31Y, T73N
VL: B1 VL
B5: humanized anti-GPVI Fab VL1/VH3 (Fab, V domains shown)
VH: B1 VH with Q1E, Q5L, Q16G, S42G, R43K, T73N, T86R, Q106L
VL: B1 VL
B6: humanized anti-GPVI Fab VL1/VH2 (Fab, V domains shown)
VH: B1 VH with T73N
VL: B1 VL
B7: humanized anti-GPVI Fab VL2/VH2 (Fab, V domains shown)
VH: B1 VH with T73N
VL: B1 VL with N93H
B8: humanized anti-GPVI Fab VL1/VH5 (Fab, V domains shown)
VH: B1 VH with T73N, Y103E
VL: B1 VL

The test addresses extracellular domain of human GPVI (human) (UniProt Q9HCN6). Nature of the test: SPR (Biacore 3000), human GPVI immobilised by amine coupling, Fab as analyte.
For the molecule B1, the Kd was 400 pM, the koff came to 4e-05 s⁻¹ and the kon is 111000 M⁻¹ s⁻¹.
B2: the Kd came out at 200 pM, the koff came to 3e-05 s⁻¹ and the kon turned out to be 132000 M⁻¹ s⁻¹.
With B3, the Kd was 300 pM, the off-rate (koff) was determined as 4e-05 s⁻¹ and the kon came out at 151000 M⁻¹ s⁻¹.
As to B4, the Kd stood at 200 pM, the koff came to 2e-05 s⁻¹ and the kon is 124000 M⁻¹ s⁻¹.
For the molecule B5, the Kd was determined as 100 pM, the koff turned out to be 2e-05 s⁻¹ and the on-rate (kon) is 148000 M⁻¹ s⁻¹.
Molecule B6 registered a Kd of 200 pM, a koff of 3e-05 s⁻¹ and a kon of 113000 M⁻¹ s⁻¹.
On the same counts, the results for B7 are 300 pM, 3e-05 s⁻¹ and 108000 M⁻¹ s⁻¹.
Taken in the same sequence, the figures for B8 were 400 pM, 3e-05 s⁻¹ and 81000 M⁻¹ s⁻¹.
